System: activated T cells in PBMCs
Experiment: Cytokine and Granzyme-B secretion by anti-CD3 activated PBMCs (Luminex)
Format: cell-based
Conditions: 100 nM, 72 hours, 5 donors, compared to KB_A12
Method: Methods for measuring cytokine release from T cells are well known to those skilled in the art (eg Tarcha et al, (2012) J Pharmacology and Experimental Therapeutics, 342 p642-653). Peripheral blood mononuclear cells (PBMCs) were isolated from 5 healthy donors and were simulated by culturing in 96-well plates pre-coated with 500 ng/ml of the anti-CD3 antibody OKT3 (ebioscience, Cat. No. 16-0037-85). PBMCs were suspended at 2 × 10^6 cells/ml and 100 ul of cells suspension mixed with 100 ul of test sample (KB_A12_ShK) or positive control (free ShK toxin, Alomone labs, STS-400) or negative control (parental KnotBody KB_A12) at a final concentration of 100 nM. (Samples were in triplicate for KB_A12_ShK or duplicate for KB_A12 and free ShK). Cells were incubated at 37° C. for 72 hours, centrifuged at 1500 rpm for 5 mins at room temperature before removing 150 ul of supernatant. After 72 hours incubation, the concentration of cytokines and Granzyme-B was determined using a Luminex bead based assay according to manufacturers instructions (Thermo Fisher).

B1: KB_A12_ShK: ShK toxin in VL CDR2 of KB_A12, IgG1 (antibody, V domains shown)
VH: EVQLVESGGGLVRPGGSLRLSCAASGFTFSSYAMSWVRQAPGKGLEWVSAISGSGGSTYYADSVKGRFTISRDNTKNSLYLQMTSLRADDTAFYYCVKDFGPGYGTGWFDYWGPGTLVTVSS
VL: QSVLTQPPSVSEAPRQRVTITCSGSSSNIGNNAVNWYQQLPGKAPKLLIYAAGRRSCIDTIPKSRCTAFQCKHSMKYRLSFCRKTCGTCANSGVSDRFSAAKSGTSASLAINGLRSEDEADYYCAAWDDSLNGYVFGTGTKLTVLG
reduced: Secretion of Granzyme B | Secretion of Interferon gamma | Secretion of TNF-alpha | Secretion of interleukin-17A

Reference: patent US20230331827A1, “POTASSIUM CHANNEL INHIBITORS” (priority 2017, published 2023)
